From article PMC11357992, “Non-invasive mapping of systemic neutrophil dynamics upon cardiovascular injury” (Nature Cardiovascular Research, 2023)
Several values for one entry are separate records, joined by “and”; a condition that tells them apart may be missing. Identical values can stand only once. Where no end group is shown, it is not given here. Side-chain parts run from the residue outwards. rhodamine‑labelled PEGylated perfluoro‑15‑crown‑5 ether nanoemulsion = not defined here; carboxyfluorescein = N-terminal fluorescence label (CF)

Tests used:
[1] = 19F content of PFCs by 19F MRI; assay type: physicochemical; conditions: panel B raw data, single replicates #1-#3
Description: Extended Data Fig. 8 Physicochemical properties and cellular uptake of ^hNPPFCs. a, Cellular uptake of ^hNPPFCs by human monocyte subsets and neutrophils: Human immune cells isolated from the blood of healthy volunteers were incubated with ^hNPPFCs. Subsequently, cells were stained with CD11b, CD14 and CD16 to differentiate between neutrophils (red), classical monocytes (gray) and non-classical monocytes (blue) and the cells were analyzed by flow cytometry. The cellular uptake of ^hNPPFCs was determined under unstimulated conditions (top) and after treatment with 1 µg/ml LPS (bottom). b, Physicochemical properties of the generated nanotracers: Characterization of size, size distribution and ζ potential of ^MalPFCs and targeting PFCs (^hNPPFCs, ^ConPFCs) by dynamic light scattering (DLS). The rhodamine fluorescence signal of the PCS was determined by IVIS imaging and the ^19F content by ^19F MRI. c-e, Cryo transmission electron microscopy of the generated nanotracers: c, Cryo transmission electron microscopy (cryo-TEM) of ^hNPPFCs and ^ConPFCs. Graphs: The diameter of the PFCs was determined manually from three images categorized into 25 nm groups. […] The number of PFCs and liposomes was manually determined (n = 4/5 images). […]

[2] = Cryo-transmission electron microscopy of PFCs (diameter, liposomes); assay type: physicochemical; parameters: key: % of PFCs per 25 nm diameter class in cryo-TEM images; conditions: cryo-TEM size distribution; panel C raw data, single replicates #1-#3
Description: PFCs were diluted with sample buffer to minimize particle aggregation and therefore enable proper size measurements, which were carried out as previously described.
Extended Data Fig. 8 Physicochemical properties and cellular uptake of ^hNPPFCs. a, Cellular uptake of ^hNPPFCs by human monocyte subsets and neutrophils: Human immune cells isolated from the blood of healthy volunteers were incubated with ^hNPPFCs. Subsequently, cells were stained with CD11b, CD14 and CD16 to differentiate between neutrophils (red), classical monocytes (gray) and non-classical monocytes (blue) and the cells were analyzed by flow cytometry. The cellular uptake of ^hNPPFCs was determined under unstimulated conditions (top) and after treatment with 1 µg/ml LPS (bottom). b, Physicochemical properties of the generated nanotracers: Characterization of size, size distribution and ζ potential of ^MalPFCs and targeting PFCs (^hNPPFCs, ^ConPFCs) by dynamic light scattering (DLS). The rhodamine fluorescence signal of the PCS was determined by IVIS imaging and the ^19F content by ^19F MRI. c-e, Cryo transmission electron microscopy of the generated nanotracers: c, Cryo transmission electron microscopy (cryo-TEM) of ^hNPPFCs and ^ConPFCs. Graphs: The diameter of the PFCs was determined manually from three images categorized into 25 nm groups. […] Data are derived from three images for ^hNPPFCs and ^ConPFCs each. d, Box plot (box and whiskers; min to max) of the diameter of ^ConPFCs/^hNPPFCs calculated from cryo-TEM images. e, Relative amount of liposomes (%) in individual cryo-TEM images. The number of PFCs and liposomes was manually determined (n = 4/5 images). Red arrows in the cryo-TEM images indicate liposomes. Data are mean values ± SD of n = 5-6 (a), n = 3-6 (b), n = 3 (c), n = 3 (d) and n = 6 (e) independent experiments; *** = p < 0.001, verified by one-way ANOVA (a). Source data

murine neutrophils [3] = test: Migration of murine neutrophils into Matrigel/LPS plug after mNPPFC injection; assay type: in vivo, mouse; conditions: in the presence of the targeting PFCs
Description: […] per kg BW ^mNPPFCs or saline were injected i.v., and, after 1 h, LPS-doped Matrigel was implanted s.c. into the neck of mice. After 2 h, the Matrigel plug was excised, and infiltrated neutrophils were isolated and stained with anti-CD11b and anti-Ly6G antibodies for flow cytometry.
A total of 1 × 10^6 isolated human neutrophils were incubated with or without 50 µl ^hNPPFCs for 1 h at 37 °C in 1 ml DMEM. After washing with DMEM, 1 × 10^5 of these cells were placed in a Boyden chamber containing 200 µl DMEM. The lower part of the chamber contained 100 ng ml^−1 IL-8 in 1 ml DMEM. After 1 h in an incubator, the flow through was collected, and the number of neutrophils was counted by flow cytometry. Murine neutrophils were isolated from Matrigel–LPS plugs and stained for Ly6G. Afterward, cells were washed twice, and the number of neutrophils was determined by flow cytometry.
(§1) Extended Data Fig. 9 Impact of ^mNPPFCs on murine neutrophils. a, Differentially expressed genes (DEGs) identified by bulk RNA sequencing of murine blood neutrophils after intravenous injection of ^mNPPFCs, ^ConPFCs or NaCl (Ctrl) as control. […] In total 25655 RNA transcripts were analyzed. b, Cell surface expression of CD11b, CD62L, CD63 on blood derived murine neutrophils after intravenous application of NaCl (Ctrl) or ^mNPPFCs. […]

murine neutrophils [4] = test: ROS production of murine neutrophils after mNPPFC injection (dihydroethidium, UPLC); assay type: in vivo, mouse; conditions: in the presence of the targeting PFCs
Description: […] per kg BW ^mNPPFCs or saline were injected i.v., and, 2 h later, neutrophils were isolated from the bone marrow, and extracellular ROS was measured in the cell supernatant by oxidation of dihydroethidium followed by UPLC analysis.
A total of 5 × 10^6 human neutrophils were incubated in 10 ml DMEM with or without 1 µg ml^−1 peptide or 50 µl ml^−1 emulsion. At distinct time points, cells were pelleted, and 1 ml of the supernatant was immediately frozen at −80 °C. Subsequently, the amount of ROS was determined by chemiluminescence analysis. […] After centrifugation, 80 µl supernatant was used to determine ROS by UPLC measurement (Waters Acquity Bio H-Class with 2475 FLD Detector). To this end, gradients A and B (0.1% trifluoroacetic acid in 1 l water and acetonitrile, respectively) at a flow rate of 0.26 ml min^−1 at 17 °C were used. Dihydroethidium was excited and detected at 480 nm and 580 nm, respectively.
as §1

## hNPPFCs: PEGylated rhodamine-labeled perfluorocarbon nanoemulsion coupled with human neutrophil-specific peptide hNP (carboxyfluorescein-DLVTSKLQVGGGC; also: C-terminal Cys coupled via maleimide-PEG2000-DSPE to rhodamine-labelled perfluorocarbon nanoemulsion)
[1]
  19F amount: 6.421 and 6.014 and 6.958
[2]
  share of particles in size class 0-25: 0
  share of particles in size class 25-50: 26.2295 and 23.5714 and 28.5714
  share of particles in size class 50-75: 45.9016 and 51.4286 and 42.0635
  share of particles in size class 75-100: 21.3115 and 20 and 23.8095
  share of particles in size class 100-125: 6.557 and 5 and 5.556
  share of particles in size class 125-150: 0
  share of particles in size class 150-175: 0
  share of particles in size class 175-200: 0

## mNPPFCs: PEGylated rhodamine-labeled perfluoro-15-crown-5 ether nanoemulsion (maleimide PFCs) coupled with murine neutrophil-specific peptide mNP (carboxyfluorescein-DFYKPMPNLRITGGGC([maleimide‑PEG2000‑DSPE-rhodamine‑labelled PEGylated perfluoro‑15‑crown‑5 ether nanoemulsion]); reading uncertain; also: printed as DFYKPMPNLRIT-GGG-C)
Murine neutrophils [3]
  migration of murine neutrophils: unaltered
Murine neutrophils [4]
  ROS production of murine neutrophils: unaltered
